Assay results as given in US20200362018A1 (YEDA RESEARCH AND DEVELOPMENT, published 2020).

Tests used:
[1] = molecular target: T1, T. acidophilum (Archaea) 20S proteasome (T. acidophilum, UniProt P25156 1-233; P28061 9-211); assay: native MS with MS/MS of the isolated 20S proteasome peak
T1 construct: Assembled in vitro as α7β7β7α7; also called archaeal 20S proteasome; 20S proteasome from T. acidophilum
Description: Nanoflow electrospray ionization MS and tandem MS experiments were conducted under non-denaturing conditions on a QToF Q-Star Elite instrument (MDS Sciex, Canada), modified for improved transmission of large non-covalent complexes, or an Q-Exactive Plus Orbitrap EMR (ThermoFisher Scientific). Before MS analysis, 20 μl of up to 100 mM sample was buffer exchanged into 0.5-1 M ammonium acetate pH 7.5, using Bio-Spin columns (Bio-Rad). Sample concentrations were determined by ultraviolet absorbance. Assays were performed in positive ion mode and conditions were optimized to enable the ionization and removal of adducts, without disrupting the non-covalent interactions of the proteins tested. In tandem MS experiments, the relevant m/z values were isolated and argon gas was admitted to the collision cell. […] The following experimental parameters were used on the QToF Q-Star Elite instrument: capillary voltage up to 1.1 kV, declustering potential up to 220 V, focusing potential up to 240 V, a second declustering potential of 15 V, collision energy of between 20 and 200 V and an MCP of 2,350 V. The following experimental conditions were used on the Q-Exactive Plus Orbitrap EMR: capillary voltage 1.7 kV, MS spectra were recorded at low resolution (5000), and the HCD cell voltage was set to 20-50 V, at trapping gas pressure setting of 3.9.

[2] = molecular target: α-synuclein (UniProt P37840 1-140); assay: native mass spectrometry of α-synuclein incubated with the CCR
Description: Nanoflow electrospray ionization MS and tandem MS experiments were conducted under non-denaturing conditions on a QToF Q-Star Elite instrument (MDS Sciex, Canada), modified for improved transmission of large non-covalent complexes, or an Q-Exactive Plus Orbitrap EMR (ThermoFisher Scientific). Before MS analysis, 20 μl of up to 100 mM sample was buffer exchanged into 0.5-1 M ammonium acetate pH 7.5, using Bio-Spin columns (Bio-Rad). Sample concentrations were determined by ultraviolet absorbance. Assays were performed in positive ion mode and conditions were optimized to enable the ionization and removal of adducts, without disrupting the non-covalent interactions of the proteins tested. In tandem MS experiments, the relevant m/z values were isolated and argon gas was admitted to the collision cell. […] The following experimental parameters were used on the QToF Q-Star Elite instrument: capillary voltage up to 1.1 kV, declustering potential up to 220 V, focusing potential up to 240 V, a second declustering potential of 15 V, collision energy of between 20 and 200 V and an MCP of 2,350 V. The following experimental conditions were used on the Q-Exactive Plus Orbitrap EMR: capillary voltage 1.7 kV, MS spectra were recorded at low resolution (5000), and the HCD cell voltage was set to 20-50 V, at trapping gas pressure setting of 3.9. […]

[3] = molecular target: T1, T. acidophilum (Archaea) 20S proteasome; assay: peptide array of overlapping T. acidophilum 20S proteasome peptides

T1 sequence (P25156 whole entry, chain 1 of 2): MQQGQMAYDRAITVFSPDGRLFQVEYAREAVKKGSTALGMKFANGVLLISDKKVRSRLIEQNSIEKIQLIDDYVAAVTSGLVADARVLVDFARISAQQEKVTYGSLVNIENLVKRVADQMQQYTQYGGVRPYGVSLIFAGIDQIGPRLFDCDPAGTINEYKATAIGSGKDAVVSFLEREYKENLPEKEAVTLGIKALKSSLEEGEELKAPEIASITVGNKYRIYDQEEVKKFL
T1 sequence (P28061 9-211, chain 2 of 2): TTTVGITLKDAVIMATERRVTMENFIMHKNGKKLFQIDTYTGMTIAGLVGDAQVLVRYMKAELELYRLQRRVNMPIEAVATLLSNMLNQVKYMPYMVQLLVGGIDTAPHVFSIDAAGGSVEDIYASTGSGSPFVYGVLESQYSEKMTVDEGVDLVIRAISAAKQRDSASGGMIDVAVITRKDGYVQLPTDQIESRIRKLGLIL

binding result [1]	binding result [2]	binding result [3]	Binder
binds			human DJ-1 (other, UniProt Q99497 1-189, looked up, also called PARK7) MASKRALVILAKGAEEMETVIPVDVMRRAGIKVTVAGLAGKDPVQCSRDVVICPDASLEDAKKEGPYDVVVLPGGNLGAQNLSESAAVKEILKEQENRKGLIAAICAGPTALLAHEIGFGSKVTTHPLAKDKMMNGGHYTYSENRVEKDGLILTSRGPGTSFEFALAIVEALNGKEVAAQVKAPLVLKD
	no binding		human PGDH with a C-terminal 6His tag (enzyme, also called PGDH-His; not shown: C-terminal 6His tag) MHVNGKVALVTGAAQGIGRAFAEALLLKGAKVALVDWNLEAGVQCKAALDEQFEPQKTLFIQCDVADQQQLRDTFRKVVDHFGRLDILVNNAGVNNEKNWEKTLQINLVSVISGTYLGLDYMSKQNGGEGGIIINMSSLAGLMPVAQQPVYCASKHGIVGFTRSAALAANLMNSGVRLNAICPGFVNTAILESIEKEENMGQYIEYKDHIKDMIKYYGILDPPLIANGLITLIEDDALNGAIMKITTSKGIHFQDYDTTPFQAKTQ
	no binding	binds	human CBR3 (recombinant, His tag removed) (enzyme, UniProt O75828 1-277, looked up) MSSCSRVALVTGANRGIGLAIARELCRQFSGDVVLTARDVARGQAAVQQLQAEGLSPRFHQLDIDDLQSIRALRDFLRKEYGGLNVLVNNAAVAFKSDDPMPFDIKAEMTLKTNFFATRNMCNELLPIMKPHGRVVNISSLQCLRAFENCSEDLQERFHSETLTEGDLVDLMKKFVEDTKNEVHEREGWPNSPYGVSKLGVTVLSRILARRLDEKRKADRILVNACCPGPVKTDMDGKDSIRTVEEGAETPVYLALLPPDATEPQGQLVHDKVVQNW
